Experimental data as given in PMC10683072 (2023).

T1: KQTSV peptide
T1 chain: KQTSV

T2: KQTSV peptide (tandem dimer of PDZ3)
T2 chain: KQTSV


Experiments:
KQTSV peptide [1] = biological target: T1, KQTSV peptide; test: diffusion lag time measurement with labeled peptide (Figure S12)
KQTSV peptide [2] = biological target: T2, KQTSV peptide; test: as above

Binder | Kd (KQTSV peptide [1]) | Kd (KQTSV peptide [2])
PDZ3 PDZ3 (protein) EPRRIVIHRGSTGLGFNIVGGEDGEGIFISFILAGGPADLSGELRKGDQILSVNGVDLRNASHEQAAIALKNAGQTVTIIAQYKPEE | 670 nM | –
2xPDZ3 (two tandem repeats of PDZ3) PDZ3 (protein) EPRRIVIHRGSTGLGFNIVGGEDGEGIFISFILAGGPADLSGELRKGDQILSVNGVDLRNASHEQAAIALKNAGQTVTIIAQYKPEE | – | 680 nM
